Here are results for five molecules from patent EP4759829A1 (The University of Tokyo, dated 2025).

“And” between values parts separate entries of the source, which are not always exact repeats. Equal values may be shown once.

For test [1], the target named is T1, human HVEM on cells (HEK293T cells expressing HVEM; Mesenchymal subtype GBM cells) (human, UniProt Q92956 39-283).
T1 sequence (looked up): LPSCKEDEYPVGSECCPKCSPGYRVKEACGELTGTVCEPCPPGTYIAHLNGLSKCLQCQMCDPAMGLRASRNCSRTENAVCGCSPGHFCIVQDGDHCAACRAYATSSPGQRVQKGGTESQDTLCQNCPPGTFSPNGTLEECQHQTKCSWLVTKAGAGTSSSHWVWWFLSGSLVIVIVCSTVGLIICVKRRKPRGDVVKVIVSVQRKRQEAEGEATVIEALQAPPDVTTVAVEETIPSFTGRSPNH
Description: cell-based or functional assay.

The target of test [2] is T2, human HVEM extracellular domain recombinant protein (Sino Biological Japan Inc. 10334-H08H) (human, UniProt Q92956 39-202).
T2 construct: extracellular domain; Bought protein
T2 sequence (looked up): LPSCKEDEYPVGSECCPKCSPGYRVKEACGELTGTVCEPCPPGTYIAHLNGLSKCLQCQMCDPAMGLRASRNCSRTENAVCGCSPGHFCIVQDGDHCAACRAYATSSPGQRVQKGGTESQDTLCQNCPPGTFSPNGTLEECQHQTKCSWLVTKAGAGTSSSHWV
Description: SPR (BIAcore T200), antibody captured by anti-human IgG on CM5 chip, HVEM extracellular domain as analyte.

Test [3] concerns the target T1, human HVEM on cells (HEK293T cells …). Kind of test: cell ELISA on fixed HEK293T cells expressing HVEM, anti-His-HRP detection.
Test [4] concerns the target T2, human HVEM extracellular domain …. Description: SPR (BIAcore T200), biotinylated VHH-3-Avitag on SA chip, HVEM extracellular domain as analyte. For orientation: SPR reads the build-up and loss of mass on a sensor chip optically.

B1: humanized anti-human HVEM antibody (HVR80) conjugated with monomethyl auristatin E (MMAE) (other)
chain: EVQLVESGGGLVQPGGSLRLSCAASGSIGSIHRWDWYRQAPGKQREWVATLNSEGGPTYADSVEGRFTISRDNSKNTLYLQMNSLRPEDTAVYRCAARTVPFEYWGQGTLVTVSSGPPCPPCPAPEFLGGPSVFLFPPKPKDTLMISRTPEVTCVVVDVSQEDPEVQFNWYVDGVEVHNAKTKPREEQFNSTYRVVSVLTVLHQDWLNGKEYKCKVSNKGLPSSIEKTISKAKGQPREPQVYTLPPSQEEMTKNQVSLTCLVKGFYPSDIAVEWESNGQPENNYKTTPPVLDSDGSFFLYSRLTVDKSRWQEGNVFSCSVMHEALHNHYTQKSLSLSLGK
modifications: conjugated with monomethyl auristatin E (MMAE) using Glyclick ADC MMAE (Genovis AB); site not stated
As to B1, the “IC50 of cell viability of HEK293T-HVEM cells, 3 days” value in test [1] was 70 ng/ml and 0.9 nM.

B2: humanized anti-human HVEM antibody (HVR80) conjugated with PNU (other)
chain: EVQLVESGGGLVQPGGSLRLSCAASGSIGSIHRWDWYRQAPGKQREWVATLNSEGGPTYADSVEGRFTISRDNSKNTLYLQMNSLRPEDTAVYRCAARTVPFEYWGQGTLVTVSSGPPCPPCPAPEFLGGPSVFLFPPKPKDTLMISRTPEVTCVVVDVSQEDPEVQFNWYVDGVEVHNAKTKPREEQFNSTYRVVSVLTVLHQDWLNGKEYKCKVSNKGLPSSIEKTISKAKGQPREPQVYTLPPSQEEMTKNQVSLTCLVKGFYPSDIAVEWESNGQPENNYKTTPPVLDSDGSFFLYSRLTVDKSRWQEGNVFSCSVMHEALHNHYTQKSLSLSLGK
modifications: conjugated with PNU using Glyclick ADC PNU (Genovis AB); site not stated
In the case of B2, the “IC50 of cell viability of HEK293T-HVEM cells, 3 days” value in test [1] is 30 ng/ml and 0.4 nM.

B3: humanized anti-human HVEM antibody (HVR80) (Fc fusion)
chain: EVQLVESGGGLVQPGGSLRLSCAASGSIGSIHRWDWYRQAPGKQREWVATLNSEGGPTYADSVEGRFTISRDNSKNTLYLQMNSLRPEDTAVYRCAARTVPFEYWGQGTLVTVSSGPPCPPCPAPEFLGGPSVFLFPPKPKDTLMISRTPEVTCVVVDVSQEDPEVQFNWYVDGVEVHNAKTKPREEQFNSTYRVVSVLTVLHQDWLNGKEYKCKVSNKGLPSSIEKTISKAKGQPREPQVYTLPPSQEEMTKNQVSLTCLVKGFYPSDIAVEWESNGQPENNYKTTPPVLDSDGSFFLYSRLTVDKSRWQEGNVFSCSVMHEALHNHYTQKSLSLSLGK
notes: Printed molecular weight about 77,000
The Kd is a measure of binding affinity in units of concentration. As to B3, the Kd in test [2] came to 59 nM.

B4: alpaca anti-human HVEM antibody (VHH-3), 6×His-tagged (VHH)
VHH: QVQLVESGGGSVQPGGSLRLSCAASGSIGSIHRWDWYRLCPGKQREWVATLNSEGGPTYADSVEGRFTISRDNAKNMVYLQMNSLKPEDTAVYRCSARTVPFEYWGRGTQVTVSS
notes: also called 6×His-tagged VHH-3 antibody; not shown: 6×His tag
In general, EC50 refers to the midpoint of the concentration-response curve. A high value points to weaker potency. In turn, B4 had a concentration giving a half-maximal response (EC50) in test [3] of 1.94 nM.

B5: alpaca anti-human HVEM antibody (VHH-3) tagged C-terminally with biotinylated Avitag (VHH)
VHH: QVQLVESGGGSVQPGGSLRLSCAASGSIGSIHRWDWYRLCPGKQREWVATLNSEGGPTYADSVEGRFTISRDNAKNMVYLQMNSLKPEDTAVYRCSARTVPFEYWGRGTQVTVSS
modifications: biotinylated Avitag at the C-terminus
notes: not shown: C-terminal Avitag (biotinylated)
For B5, the Kd in test [4] was 19 nM.
